Data on 1 substance can be found in patent US20160136234A1.

For the test, the target named is Mitogen-Activated Protein Kinase-Activated Protein Kinase 2 (human) (UniProt P49137). Briefly: cell-based or functional assay.

As for MMI-0100 (peptide), the IC50 (radiometric kinase activity assay) was found to be 22 µM.
